# Laboratory results taken from the nanobody polyreactivity screen of Harvey et al. (2022).
# Experiment: yeast display, Sf9 membrane polyspecificity reagent, FACS + sequencing; frameworks hold sequencing errors
# In short: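 Synthetic nanobody libraries on Saccharomyces cerevisiae BJ5465 were galactose-induced for 36–48 hours, stained 1 hour at 4 °C with 10% biotinylated, detergent-solubilized Sf9 membrane reagent and enriched on streptavidin microbeads. FACS then separated cells into low and high (top ~1%) gates by anti-HA (expression) and streptavidin (reagent binding) fluorescence. Genes were colony-PCR amplified, MiSeq 2 × 250 sequenced and CDR-length filtered. A clone's polyreactivity label is that of its gate of origin.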
row,Sequence,polyreactivity (PSR sort gate)
1,QVQLVESGGGLVQAGGSLRLSCAASGFIFDIYAMGWYRQAPGKERELVASINWSGGDSTSYADSVKGRFTISRDNAKNTVYLQMNSLKPEDTAVYYCNAEYWSYAGGYPDEYDYWGQGTQVTVSS,low polyreactivity
2,QVQLVESGGGLVQAGGSLRLSCAASGRIFGYNAMGWYRQAPGKERELVAAITNGGSTNYADSVKGRFTISRDNAKNTVYLQMNSLKPEDTAVYYCAVKWYPPGHDYWGQGTQVTVSS,low polyreactivity
3,QVQLVESGGGLVQAGGSLRLSCAASGRIFYFYVMGWYRQAPGKERELVAGISDGSTNYADSVKGRFTISRDNAKNTVYLQMNSLKPEDTAVYYCAKDPLVIRFVQGRFGYDYWGQGTQVTVSS,low polyreactivity
4,QVQLVESGGGLVQAGGSLRLSCAASGRIFYRYAMGWYRQAPGKERELVAAINDGGSTYYADSVKGRFTISRDNAKNTVYLQMNSLKPEDTAVYYCNVVNEHQSDFVVPFDYNHWGQGTQVSVSS,low polyreactivity
5,QVQLVESGGGLVQAGGSLRLSCAASGSTFGGNAMGWYRQAPGKERELVAAIDSGGGTNYADSVKGRFTISRDNAKNTVYLQMNSLKPEDTAVYYCNADWAVRSTQNSSSGHVYWGQGTQVTVSS,low polyreactivity
6,QVQLVESGGGLVQAGGSLRLSCAASGFTVGSNAMGWYRQAPGKERELVAAISRSSGRTYYADSVKGRFTISRDNAKNTVDLQMNSLKPEDTAVYYCAAQTRYRISLQYYYWGQGTQVTVSS,high polyreactivity
7,QVQLVESGGGLVQAGGSLRLSCAASGNTFEYYVMGWYRQAPGKERELVAAITWSTGSTYYADSVKGRFTISRDNAKNTVYLQKNSLKPEDTAVYYCAALYYFIFGRPTRFDYWGQGTQVTVSS,low polyreactivity
8,QVQLVESGGGLVQAGGSLRLSCADSGFTFYYSAMGWYRQAPGKEREVVAAISWGGGTTYYADSVKGRFTISRDNAKNTVYLQMNSLKPEDTAVFYCNAASSLPGYDYWGQGTQVTVSS,high polyreactivity
9,QVQLVDSGGGLVQAGGSLRLSCAASGSIFRYKAMGWYRQAPGKERELVAAISWSGGRTYYADSVKGRFTISRDNAKNTVYLQMNSLKPEDTAVYYCAAAWYSSSRYQGIYRFAYWGQGTQVTVSS,high polyreactivity
10,QVQLVESGGGLVQAGGSLRLSCAASGSTFVGYVMGWYRQAPGKERELVAAITRSGTSTYYADSVKGRFTISRDNAKNTVYLQMNSLKPEDTAVYYCALRYVSSDYYYWGQGTQVTVSS,low polyreactivity
11,QVQLVESGGGLVQAGGSLRLSCAASGFIYRKNAMGWYRQAPGKERELVATITKSGDTTYYADSVKGRFTISRDNAKNTVYLQMNSLKPEDTAVYYCAAPLYYIGSWDYYVRYIYDYWGQGTQVTVSS,low polyreactivity
12,QVQLVESGGGIVQAGGSLRLSCAASGFTFIYYAMGWYRQAPGKERELVAGISSGGRTSYADSVKGRFTISRDNAKNTVYFQMNSLKPEDTAVYYCATPVSRFRRTEYGYYYWGQGTQVSVSS,high polyreactivity
13,QVQLVESGGGKVQAGGSLRLSCAASGRIFPEYAMGWYRQAPGKERELVAAISSGDNTTYADSVKGRFTISRDNAKNTVYLQMNSLKPEDTAVYYCNAGSGTTGQGGPIIEYGYWGQGTQVTVSS,low polyreactivity
14,HVQLQESGGGLVQAGGSLRLSCAASGYISHADEMGWYRQAPGKEHELVASISNGGSTNYADSVKGRFTISRDNAKNTVYLQMNSLKSEVTAVYYCAAWTGQVDFHYYWGQGTQVSVSS,low polyreactivity
15,QVQLVESGGGLVQAGGSLRLSCAASGRTFQDNVMGWYRQAPGKETELVAAINTSSGSTYYADSVKGRFTISRDNAKNTVYLQMNSLKPEDTAVYYCFSYDYDYWGQGTQVTVSS,low polyreactivity
16,QVQLVESGGGLVQAGGSLRLSCAASGSTSTYNAMGWYRQAPGKERELVAAITESGGSTYYADSVKGRFTISRDNAKNTVYLQMNSLKPEDTAVYYCAADLTYTYEFWGQGTQVTVSS,low polyreactivity
17,QVQLVESGGRLVQAGGSLRLSCAASGSTFGWNAMGWYRQAPGKETELVAAISRSGGRTYYADSVKGRFTISRDNANNTVYLQMISLKPEVTAVYYCAADRSTTGGLRGYWGQGTQVTVSS,high polyreactivity
18,QDQLVESGGGVVQAGGSLRLSCDASGFIFYRYAMGWSRQAPGKERELLAAISRSGGSTYYADSVKRRFTISRDNAKYTVYLQLKSLKPEDTAVYYCATTGQRNLYLVNYSGQGTQVTVSS,low polyreactivity
19,QVQLVESGGGLVQAGGSLRLSCAASGFIFSYYAMGWYRQAPGKERELVAAITQSGGGTYYADSVKGRFTISRDNAKNTVYLQMNSLKPEDTAVYYCAKSRRVYSREGWFHYRAYGYWGQGTQVTVSS,high polyreactivity
20,QVQLVESGGGLVQAGGSLRLSCAASGRIFFYNAMGWYRQAPGKERELVATIRGGGSTNYADSVKGRFTISRDNAKNTVYLQMNSLKPEDTAVYYCAARRGSYSVTEYWGQGTQVTVSS,high polyreactivity
21,QVQLVESGGGLVQAGGSLRLSCAASGRTFYYNGMGWYRQAPGKERELVAAITSGGTTSYADSVKGRFTISRDNAKNTVYLQMNSLKPEDTAVYYCAKRTVPRYEYWGQGTQVTVSS,low polyreactivity
22,QVQHLESRGGLVQAGGSLRLSCAASGSIFASNAMGWYRPAPGKEREFVAAITWRTDRTYYADSVKGRYTISRDIAKNTVYLQMNSLKPEDTAVYYCNAGRRVYYYSAYYGGGYWGQGTQVTVSS,high polyreactivity

row,Sequence,polyreactivity (PSR sort gate)
1,QLQHVESGGGLVQAGGSLRLSCAASGRTFWYYAMGWYRQAPGTESELVAAISRGGGSTYYADSVKGSFTISRDTAKNTVYLQMNILKPEDTAVYYCAVASDYRGYYYWGQGTQVTVSS,high polyreactivity
2,QVQLVESGGGLVQAGGSLRLSCAASGFTFRYYAMGWYRQAPGKEREFVAAISWDGGITYYADSVKGRFTISRDNAKNTVYLQMNSLKPEDTAVYYCAADVIWESDYWGQGTQVTVSS,high polyreactivity
3,QVQLVESGGGLVQAGGSLRLSCAASGSIFGYYTMGWYRQAPGKERELVATINWSGGNTYYADSVKGRFTISRDNAKNTVYLQMNSLKPEDTAVYYCATRPRRGTSENGYWGQGTQVTVSS,high polyreactivity
4,QVQLVESGGGLVQAGGSLRLSCAASGRTFVGYAMGWYRQAPGKERELVAAISIGGGRTYYADSVKGRFTISRDNAKNTVYLQMNSLKPEDTAVYYCAAVFRQSNRHGGYDYWGQGTQVTVSS,high polyreactivity
5,QVQLVESGGGLVQAGGSLRLSCAASGRIFSKYAMGLYRQAPEKERELVAAISGTGGSTYYADSVKGRFTISRDNSKNTVYLHMNSLKTEDTAVYYCAAEWYGRMYYWGQGTQVTVSS,high polyreactivity
6,QVQHVESGGGLVQAGGSLRLGCPASGIIFIAYAMGWYRQAPGKERELVADISIGGSTNYADSVKGRFTISRDNAKYTVYLQMNSLKPEDTAVYYCAKRPKNKPVLGDYDHWGQGTQVTVSS,low polyreactivity
7,QVQLVESGGGLVQAGGSLRLICAASGFTFVANAMGWYRQAPGKERELVAVIDWDDGSTYYADSVKGRFTISRDNAKNTVYLQMYSLKPEDTAVYYCARDVYASPRLYTSRYNYWGQGTQVTVSS,low polyreactivity
8,QVQLVESGGGLVQAGGSLRLSCAASGSTFYVYAMGWYRQAPGKERELVATISSGGITNYADSVKGRFTISRDNAMNTVYLQMNSLKPEDTAVYYCNAKKAYYGRGMNYWGQGTQVTVSS,low polyreactivity
9,QVHLEHSAGGLVQAGGILRLSSPASGSIVVTNAMGWYRQAPGKERELVAAISNSGSSTYYADSVKGRFTISRDNSKNTVYLQMNSLKPEDTAVYYCAADEPTWDWSYPYGYWGQGTQVTVSS,high polyreactivity
10,QVQLVESGGGLVQAGGSLRLSCAASGSIFQYYVMGWYRQAPGKERELVAAISQSGGRTYYADSVKGRFTISRDNAKNTFYLQMNSLKPEDTAVYYCAAYSRNAEYDYWGQGTQVTVSS,high polyreactivity
11,QVQLVESGGGLVQAGGSLRLSCTASGFTFFSNAMGWYRQAPVKEREFVASISRSGGRTYYADSVKGRFTISRDNEKNTVYLQMNSLKPEDTAVYYCAADVPYYLHNPRYGYWGQGTQVTVSS,high polyreactivity
12,QVQLVESGGGLVQAGGSLRLSCAASGGTFSFNAMGWSRQAPGKEREVVAAITSDDGTNDADSVKGRFTISRDNAKNTVYLQMNSLKPEDTAVDYCAAESRFEGWGQGTQVTVSS,low polyreactivity
13,QVQLVESGGRLVQAGGSLRLSCAASGIIFFYYTIGWSRQAPGKERELVAAISSGGGTYYADSVKGRFTISRDNAKNTVYLQMNSLKPEDTAVYYCAAVRYSSSSRGGYWGQGTQVTVSS,high polyreactivity
14,QVQLVEAGGGLVQAGVSLRLSCAASGSIFGYNAMGWYRQAPGKERELVAAISRRGTRTYYADSVKGRFTISRDTAKNTVYLQMNSLKPEDTAVYYCNASPSLDYDYWGQGTQVTVSS,high polyreactivity
15,QVQLVESGGGLDQAGGSLRLSCAASGRIFRFYAMGWYRQATGKERELVAAISSRGGSTYYADSVKGRFTISRDNAKNTFYLQMNSLKPEDTAVYYCAKKTWRDYSYNYWGQGTQVTVSS,high polyreactivity
16,QVQLVESGGGLVQAGGSLRLSCAASGRIFLSNGMGWYRQAPGKERELVAGITTGGGDSTYYADSVKGRFTISRDNAKNTVYLQMNSLKPEDTAVYYCNADSVYAGFDYWGQGTQVTVSS,low polyreactivity
17,QVQLVESGGGLVQAGGSLRLSCAASGSTFIYNAMGWYRQAPGKERELVAAISSGGSTYYADSVKGRFTISRDNAKNTVYLQMNSLKPEDTAVYYCNAYRYRHYRVDYWGQGTQVTVSS,low polyreactivity
18,QVQLVESGGGLVQAGGSLRLSCAASGSIFGTNAMGWYRQAPGKERELVAVISDGGSTYYADSVKGRFTISRDNAKNTVYLQMNSLKPEDTAVYYCNTPLESPFYSRFGTTESDHWGQGTQVTVSS,low polyreactivity
19,QVQLVESGGGLVQAGGSLRLSCAASGGIFPFYAMGWDRQAPGKERELVAVITSSGGSTFYSDSVKGRFTISRDNAKNTVYLQMNSLKPEDTAVYYGNARRVSREIWYGATGNDYWGQGTQGTVSS,low polyreactivity
20,QVQLVESGGCLVQAGGSLRLSCAASGLIFPSYAMGWYRQAPGKERELVAAITFSGSDTNYADSVKGRFTISRDNAKNTVYLQLYSLIPEDTAVYYCAAAYFDFWGWLHDYWGQGTQVTVSS,low polyreactivity
21,QVQLVESGGGLVQAGGTLRLSSAPTGSNFSAYAKGWYREAPGKERELVAAISTSGYTNYADSVKGRFTISRDKALNTVYLQMNSLKPEDTAVSYCAADRDYGDGTAGYGYEFDYWGQGTQVTVSS,low polyreactivity
